This note sets out measurements from patent publication US20250243277A1 (AVACTA LIFE SCIENCES, published 2025).

Where a chain is given by its changes, count along the chain named.

B1: Clone 99 (designed binder)
chain: MIPGGLSEAKPATPEIQEIVDKVKPQLEEKTGETYGKLEAVQYKTQVDTWGERLHYPGTNYYIKVRAGDNKYMHLKVFKSLWHKPKDNIIEDLVLTGYQVDKNKDDELTGF
notes: His-tagged
B2: Clone 94 (designed binder)
chain: MIPGGLSEAKPATPEIQEIVDKVKPQLEEKTGETYGKLEAVQYKTQVDKVYLVWAWTGTNYYIKVRAGDNKYMHLKVFKSLFQKGSNKPEEDLVLTGYQVDKNKDDELTGF
notes: His-tagged
B3: Clone 91 (designed binder)
chain: MIPGGLSEAKPATPEIQEIVDKVKPQLEEKTGETYGKLEAVQYKTQVVNQEHFRRFIGTNYYIKVRAGDNKYMHLKVFKSLNPWLHPQDFEDLVLTGYQVDKNKDDELTGF
notes: His-tagged
B4: Clone 88 (designed binder)
chain: MIPGGLSEAKPATPEIQEIVDKVKPQLEEKTGETYGKLEAVQYKTQVVAVHAPQYAPGTNYYIKVRAGDNKYMHLKVFKSLWSEKVAVFPEDLVLTGYQVDKNKDDELTGF
notes: His-tagged
B5: Clone 97 (designed binder)
chain: MIPGGLSEAKPATPEIQEIVDKVKPQLEEKTGETYGKLEAVQYKTQVDELDDAVKYWGTNYYIKVRAGDNKYMHLKVFKSLWWKTISADFEDLVLTGYQVDKNKDDELTGF
notes: His-tagged
B6: Clone 92 (designed binder)
chain: MIPGGLSEAKPATPEIQEIVDKVKPQLEEKTGETYGKLEAVQYKTQVDIDDDLWSGTNYYIKVRAGDNKYMHLKVFKSLILWPTKPEREDLVLTGYQVDKNKDDELTGF
notes: His-tagged
B7: Clone 90 (designed binder)
chain: MIPGGLSEAKPATPEIQEIVDKVKPQLEEKTGETYGKLEAVQYKTQVVLGWWFGINQGTNYYIKVRAGDNKYMHLKVFKSLAHLQYEWGGEDLVLTGYQVDKNKDDELTGF
notes: His-tagged
B8: Clone 93 (designed binder)
chain: MIPGGLSEAKPATPEIQEIVDKVKPQLEEKTGETYGKLEAVQYKTQVDQWGVDLVYTGTNYYIKVRAGDNKYMHLKVFKSLIVKRAVILWEDLVLTGYQVDKNKDDELTGF
notes: His-tagged
B9: Clone 98 (designed binder)
chain: MIPGGLSEAKPATPEIQEIVDKVKPQLEEKTGETYGKLEAVQYKTQVDWAIWRDKKVGTNYYIKVRAGDNKYMHLKVFKSLPIFEIVREGEDLVLTGYQVDKNKDDELTGF
notes: His-tagged
B10: Clone 255 (designed binder)
chain: MIPRGLSEAKPATPEIQEIVDKVKPQLEEKTNETYGKLEAVQYKTQVLAREGRQDWVLSTNYYIKVRAGDNKYMHLKVFNGPWVPFPHQQLADRVLTGYQVDKNKDDELTGF
notes: type I Affimer monomer
B11: Clone 80 D82A (designed binder)
chain: MIPGGLSEAKPATPEIQEIVDKVKPQLEEKTGETYGKLEAVQYKTQVVRRKHFPQWPGTNYYIKVRAGDNKYMHLKVFKSLALQPREVFQEDLVLTGYQVDKNKDDELTGF
notes: alanine mutant of Clone 80 made in E. coli
B12: Clone 80 H52A (designed binder)
chain: B11 chain with H52A, A82D
notes: as for B11
B13: Clone 80 L83A (designed binder)
chain: B11 chain with A82D, L83A
notes: as for B11
B14: Clone 80 W56A (designed binder)
chain: B11 chain with W56A, A82D
notes: as for B11
B15: Clone 80 Q55A (designed binder)
chain: B11 chain with Q55A, A82D
notes: as for B11
B16: Clone 80 Q84A (designed binder)
chain: B11 chain with A82D, Q84A
notes: as for B11
B17: Clone 80 F89A (designed binder)
chain: B11 chain with A82D, F89A
notes: as for B11
B18: Clone 80 P54A (designed binder)
chain: B11 chain with P54A, A82D
notes: as for B11
B19: Clone 80 P57A (designed binder)
chain: B11 chain with P57A, A82D
notes: as for B11
B20: Clone 80 R50A (designed binder)
chain: B11 chain with R50A, A82D
notes: as for B11
B21: Clone 80 P85A (designed binder)
chain: B11 chain with A82D, P85A
notes: as for B11
B22: Clone 80 F53A (designed binder)
chain: B11 chain with F53A, A82D
notes: as for B11
B23: Clone 256 (designed binder)
chain: MIPRGLSEAKPATPEIQEIVDKVKPQLEEKTNETYGKLEAVQYKTQVLAKEHGPDSWWSTNYYIKVRAGDNKYMHLKVFNGPQEKNQWVEEADRVLTGYQVDKNKDDELTGF
notes: type I Affimer monomer
B24: Clone 111 (designed binder)
chain: MIPGGLSEAKPATPEIQEIVDKVKPQLEEKTGETYGKLEAVQYKTQVDIQDRLGGFIGTNYYIKVRAGDNKYMHLKVFKSLHFYRGILYREDLVLTGYQVDKNKDDELTGF
notes: His-tagged
B25: Clone 54 (designed binder)
chain: MIPGGLSEAKPATPEIQEIVDKVKPQLEEKTGETYGKLEAVQYKTQVVINQQQIKHSGTNYYIKVRAGDNKYMHLKVFKSLWQHIPPDFWEDLVLTGYQVDKNKDDELTGF
notes: type III Affimer monomer; His-tagged
B26: Clone 58 (designed binder)
chain: MIPGGLSEAKPATPEIQEIVDKVKPQLEEKTGETYGKLEAVQYKTQVVKQLIIWHWTGTNYYIKVRAGDNKYMHLKVFKSLFKNSNSHLEEDLVLTGYQVDKNKDDELTGF
notes: His-tagged
B27: Clone 52 (designed binder)
chain: MIPGGLSEAKPATPEIQEIVDKVKPQLEEKTGETYGKLEAVQYKTQVVGIREDWNWSGTNYYIKVRAGDNKYMHLKVFKSLFEPKKLEPAEDLVLTGYQVDKNKDDELTGF
notes: His-tagged

T1 sequence (Q9NZQ7 19-239 limits assumed): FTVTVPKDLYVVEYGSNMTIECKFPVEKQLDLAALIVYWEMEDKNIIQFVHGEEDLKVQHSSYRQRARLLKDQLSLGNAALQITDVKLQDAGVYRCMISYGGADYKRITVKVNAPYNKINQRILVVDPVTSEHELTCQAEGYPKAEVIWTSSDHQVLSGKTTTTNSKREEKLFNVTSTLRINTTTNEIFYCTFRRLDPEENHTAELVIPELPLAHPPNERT

One experiment addresses T1, human PD-L1-Fc (R&D Systems) (human, UniProt Q9NZQ7 19-239).
T1 construct: Bought from R&D Systems; Biotinylated in-house for the phage selection; also called huPD-L1-Fc; human PD-L1-Fc antigen; not shown: Fc part of the bought fusion
The experiment can be described thus: soluble Affimer ELISA. On the technique in general: An ELISA detects its analyte on a solid surface through an enzyme-linked reagent.
Regarding B1, the binding result is “binds”. Same read-out and setting: the result for B2 reads “binds”; that for B3, “binds”; that for B4, “binds”. Still for that read-out and setting: under B5 stands “binds”; under B6, “binds”. Still for that read-out and setting: the result for B7 reads “binds”. With B8, the binding result is on record as “binds”. The same measure, in the same setting: under B9 stands “binds”.

The next experiment deals with T2, human PD-L1 on CHO cells (human, UniProt Q9NZQ7 19-290). The experiment can be described thus: cell-based or functional assay.
T2 sequence (Q9NZQ7 19-290): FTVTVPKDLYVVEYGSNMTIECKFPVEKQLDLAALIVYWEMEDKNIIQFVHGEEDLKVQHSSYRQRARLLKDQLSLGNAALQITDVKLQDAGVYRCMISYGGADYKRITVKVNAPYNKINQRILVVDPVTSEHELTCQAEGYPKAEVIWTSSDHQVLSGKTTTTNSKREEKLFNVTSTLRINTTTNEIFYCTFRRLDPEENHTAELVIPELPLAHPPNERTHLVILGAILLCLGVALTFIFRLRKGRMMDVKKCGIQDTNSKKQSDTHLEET
For the molecule B10, the “IC50, PD-1/PD-L1 blockade Bioassay (Promega)” value was 30 nM.

The target of another experiment is T1, human PD-L1-Fc (R&D Systems). The experiment can be described thus: SPR (Biacore 8K), binding to PD-L1-Fc.
Usually Kd stands for the equilibrium constant for the complex coming apart. A higher Kd goes with lower affinity. Take B11: binding was characterised by a dissociation constant (Kd) of 5.08 nM. For the molecule B12, the Kd was 38 nM. On the same count and under the same terms, the result for B13 reads 1.48 nM. Regarding B14, the binding result is on record as “no binding”. In turn, B15 gave a Kd of 1.69 nM. On the same count and under the same terms, under B16 stands 0.61 nM; under B17, 2.61 nM; under B18, 0.93 nM.

Regarding B19, the affinity, expressed as Kd, was 8.91 nM. Regarding B20, the binding result is recorded as “no binding”. Turning to B21, the Kd worked out at 2.53 nM. For the molecule B22, the binding result is on record as “no binding”.

The next experiment addresses T2, human PD-L1 on CHO cells. The experiment can be described thus: flow cytometry histogram, live-gated hu-PD-L1 CHO cells, Affimer at 100 nM. As to the method: Human PD-L1 CHO cells having a cell surface over expressing human PD-L1 or CHO-negative cells were plated at 50,000 cells per well in a round bottom tissue culture plate. AFFIMER® clones were titrated from 700 nM or monoclonal antibody (mAb) controls titrated from 10 nM in cell staining buffer (PBS, 1% BSA+2 mM EDTA+0.05% Sodium Azide buffer) and incubated for 1 hour. After two washes with staining buffer, AFFIMER® polypeptides were detected with an anti-cystatin antibody. After a further two washes, AF488-conjugated anti-goat antibody (to detect AFFIMER® polypeptides) or AF488-conjugated anti human IgG1 antibody (to detect mAb controls) were incubated for 40 minutes followed by an additional wash step. Viability dye (Zombie Aqua reagent, Biolegend) was added and the plates were incubated for 10 min. After a final wash, cells were fixed and the data acquired using a multiparameter flow cytometer (Guava 12HT, Luminex Corp).
With B23, the “% (cells in the positive gate)” value came to 98.1% and the MFI was 1240 MFI.

Consider B10, for which the “% (cells in the positive gate)” value came out at 98% and the MFI was 1010 MFI.

For the next experiment, the target named is T1, human PD-L1-Fc (R&D Systems). Description: SPR (Biacore T200): human PD-L1-Fc amine-coupled on a CM5 chip, Affimer monomer titrated as analyte, 1:1 Langmuir fit. The procedure: BIACORE™ T200 binding kinetic analysis was performed on monomer AFFIMER® clones with running buffer HBS-EP+ (Cytiva) and a series S sensor CM5 chip immobilized with human PD-L1-Fc (R&D Systems) in 10 mM Sodium acetate pH4.0 μsing amine coupling reagents (Cytiva). A concentration titration of AFFIMER® monomer was run as analyte with an association time of 150 seconds, followed by a dissociation time of 300 seconds at a flow rate of 30 μl/min. For Clone 80, the association time was increased to 500 seconds and 1000 seconds dissociation time. The human PD-L1-Fc immobilized surface was regenerated with 3-3.5 mM NaOH solution (Cytiva) for 20-30 seconds at 20 μl/min flow rate. The kinetic data was blank subtracted and fit to a 1:1 Langmuir binding model (BIAcore evaluation software; Cytiva) to calculate an apparent KD value.
Background: SPR reads the build-up and loss of mass on a sensor chip optically.
For orientation: koff means the rate constant with which the complex falls apart. Low values mean slow dissociation, high ones fast dissociation. What is called kon is the rate constant with which the complex forms. High values mean faster complex formation, low ones slower complex formation. B24: the affinity, expressed as Kd, was 44 nM; the koff was found to be 0.0457 s⁻¹; the kon is 1.04e+06 M⁻¹ s⁻¹. In the same order, the values of B25 are 45.6 nM, 0.0909 s⁻¹ and 1.99e+06 M⁻¹ s⁻¹.

A further experiment has the same target. The experiment can be described thus: PD-L1/PD-1 competition ELISA, % inhibition: Affimer pre-incubated with huPD-L1-Fc, then loaded on plate-coated human PD-1-Fc (blocked ligand). Column head on the sheet reads 'EC50nM'; the text calls these values IC50. As to the method: The competitive inhibition of AFFIMER® multimers was evaluated by enzyme linked immunosorbent assay (ELISA). Human PD-1-Fc (R&D Systems) was coated at 0.5 μg/ml on the plate. Plates were washed two times with […] of washing buffer (PBS, Tween 20 0.1%) with a plate washer and saturated with Casein 5% (Sigma) in PBS for 90 minutes at room temperature (25±1° C.). Plates were subsequently washed. AFFIMER® polypeptides and controls (human PD-1-Fc; R&D Systems or blank) were then diluted in duplicate, and preincubated with huPD-L1-Fc (R&D Systems) at a predefined concentration equivalent to the EC₈₀ for 30 minutes then loaded on the plate for 90 minutes at room temperature (25±1° C.). Plates were washed 3 times. Biotinylated polyclonal antibody anti-human PD-L1 (R&D Systems) was then diluted in dilution buffer and incubated 90 minutes at room temperature (25±1° C.). Plates were washed 3 times and Streptavidin HRP was incubated for 30 minutes at room temperature (25±1° C.). Plates were washed and the substrate (TMB; Pierce Thermo-Scientific) added to the plate for 10 minutes. The reaction was stopped using an acidic solution and plates were read at absorbance 450-630 nm. The IC₅₀ was then calculated using the interpolated non-linear four-parameter standard curve.
Broadly, the EC50 is the concentration that produces a half-maximal response. Higher therefore signals weaker potency. B23 had an EC50 of 8.55 nM. B10 displayed an EC50 of 0.205 nM. Take B25: the EC50 stood at 16.9 nM. In the case of B26, a half-maximal effect (EC50) was put at 69.9 nM. Molecule B27 displayed an EC50 of 197 nM.
